In paper PMC9228767, “Structural and Functional Characterization of the Holliday Junction Resolvase RuvC from Deinococcus radiodurans” (Microorganisms, 2022):

Experiments:
[1] = target: T1, DrRuvC (Deinococcus radiodurans, UniProt Q9RX75 1-179); experiment: EMSA; 1 mM EDTA; 0-500 nM protein; 50 mM Tris-HCl pH 7.0, 100 mM NaCl, 1 mM EDTA, 1% glycerol, 50 nM 5'-FAM DNA, on ice 30 min, 5% native PAGE; conditions: protein: recombinant; tags: N-terminal 6xHis (pET28a NdeI/BamHI); chain copies: 2; label: 5'-FAM on one strand; four-way junction, non-homologous core, immobile, 4 strands
T1 sequence: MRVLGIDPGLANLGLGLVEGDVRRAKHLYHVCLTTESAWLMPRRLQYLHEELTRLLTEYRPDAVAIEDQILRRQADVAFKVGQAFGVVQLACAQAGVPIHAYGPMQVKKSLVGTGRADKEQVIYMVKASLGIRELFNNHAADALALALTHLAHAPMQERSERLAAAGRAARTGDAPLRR

[2] = target: T1, DrRuvC; experiment: EMSA; no stable shift up to 500 nM protein; 50 mM Tris-HCl pH 7.0, 100 mM NaCl, 1 mM EDTA, 1% glycerol, 50 nM 5'-FAM DNA, on ice 30 min, 5% native PAGE; conditions: protein: recombinant, tags: N-terminal 6xHis (pET28a NdeI/BamHI), chain copies: 2, label: 5'-FAM on one strand
[3] = target: T1, DrRuvC; experiment: EMSA; 1 mM EDTA; 0-500 nM protein; no significant difference from HJ-0X; 50 mM Tris-HCl pH 7.0, 100 mM NaCl, 1 mM EDTA, 1% glycerol, 50 nM 5'-FAM DNA, on ice 30 min, 5% native PAGE; conditions: protein: recombinant; tags: N-terminal 6xHis (pET28a NdeI/BamHI); chain copies: 2; label: 5'-FAM on one strand; four-way junction, 12 bp homologous mobile core, 4 strands
[4] = target: the molecule itself; experiment: SEC; Superdex 75 10/300 GL column, recombinant DrRuvC; 4 °C; buffers in Supplementary Table S1

B1: HJ-0X (structured_DNA)
DNA 1: CCACCAGAAACACGCCACAGTTTTTGTTTTGATTGCGAGGCCGTCCTACC
DNA 2: GGTAGGACGGCCTCGCAATCAAAACTTTTTGAGCACGCGAGATGTCAACG
DNA 3: CGTTGACATCTCGCGTGCTCAAAAAAAAAACAGATGCGGAGTGAAGTTCC
DNA 4: GGAACTTCACTCCGCATCTGTTTTTAAAAACTGTGGCGTGTTTCTGGTGG
B1: binds [1].

B2: flap (structured_DNA)
DNA 1: B1 DNA 1
DNA 2: B1 DNA 2
DNA 3: CGTTGACATCTCGCGTGCTCAAAAA
B2: no binding ([2]; flap, 3 strands: S1 3' half with S4 5' half, S4 3' half with S5).

B3: bulge (dsDNA)
DNA 1: B1 DNA 1
DNA 2: GGTAGGACGGCCTCGCAATCTTTTGTTTTTCTGTGGCGTGTTTCTGGTGG
B3: no binding ([2]; internal unpaired bubble, blunt ends).

B4: Y-junction (structured_DNA)
DNA 1: B1 DNA 1
DNA 2: B1 DNA 2
DNA 3: CGTTGACATCTCGCGTGCTCAAAAAAAAAACTGTGGCGTGTTTCTGGTGG
B4: no binding ([2]; three-way junction, 3 strands).

B5: duplex (dsDNA)
DNA 1: B1 DNA 1
DNA 2: GGTAGGACGGCCTCGCAATCAAAACAAAAACTGTGGCGTGTTTCTGGTGG
B5: no binding ([2]; blunt).

B6: HJ-12X (structured_DNA)
DNA 1: GACGCTGCCGAATTCTGGCTTGCTAGGACATCTTTGCCCACGTTGACCCA
DNA 2: TGGGTCAACGTGGGCAAAGATGTCCTAGCAATGTAATCGTCTATGACGTT
DNA 3: AACGTCATAGACGATTACATTGCTAGGACATGCTGTCTAGAGACTATCGA
DNA 4: TCGATAGTCTCTAGACAGCATGTCCTAGCAAGCCAGAATTCGGCAGCGTC
B6: binds [3].

B7: RuvC from Deinococcus radiodurans (DrRuvC), full-length (enzyme, UniProt Q9RX75 1-179, looked up)
chain: T1 sequence
notes: Holliday junction resolvase RuvC (DR_0440) of Deinococcus radiodurans, full length; has a C-terminal tail (residues 163-179); residues 1-154 of each monomer are seen in the crystal structure; Cloned into pET28a between NdeI and BamHI; the His tag is said to be on the protein used for crystallisation; also called DR_0440; source: E. coli BL21 (DE3), purified (nickel, desalting, Heparin ion …)
B7 was tested, and the “stoichiometry N” value [4] was 2.
